In publication PMC12135937:

How the values were obtained:
[1] = target: DIP-β isoform C (Drosophila melanogaster); assay: SPR; Biacore T100, CM4 chip; DIPs immobilised by amine coupling (700-900 RU), monomeric Dpr analytes in 3-fold dilution series (0.012 to 9, 27 or 81 µM); 25 °C; 10 mM Tris-HCl pH 7.2, 150 mM NaCl, 1 mM EDTA, 1 mg/mL BSA, 0.01% Tween-20; equilibrium responses fit to a 1:1 model
[2] = target: DIP-β isoform G (Drosophila melanogaster); assay: as above
DIP-β isoform G (Drosophila melanogaster), sequence (main, as listed by the source): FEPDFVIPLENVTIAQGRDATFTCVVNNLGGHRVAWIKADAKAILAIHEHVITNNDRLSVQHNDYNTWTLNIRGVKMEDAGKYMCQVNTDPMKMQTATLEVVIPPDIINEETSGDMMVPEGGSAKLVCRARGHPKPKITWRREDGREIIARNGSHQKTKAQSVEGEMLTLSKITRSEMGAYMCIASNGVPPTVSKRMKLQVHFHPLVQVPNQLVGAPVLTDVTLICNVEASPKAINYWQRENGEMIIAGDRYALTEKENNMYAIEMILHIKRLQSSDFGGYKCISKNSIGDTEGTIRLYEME

DIP-β isoform C (Drosophila melanogaster), sequence (main, as listed by the source): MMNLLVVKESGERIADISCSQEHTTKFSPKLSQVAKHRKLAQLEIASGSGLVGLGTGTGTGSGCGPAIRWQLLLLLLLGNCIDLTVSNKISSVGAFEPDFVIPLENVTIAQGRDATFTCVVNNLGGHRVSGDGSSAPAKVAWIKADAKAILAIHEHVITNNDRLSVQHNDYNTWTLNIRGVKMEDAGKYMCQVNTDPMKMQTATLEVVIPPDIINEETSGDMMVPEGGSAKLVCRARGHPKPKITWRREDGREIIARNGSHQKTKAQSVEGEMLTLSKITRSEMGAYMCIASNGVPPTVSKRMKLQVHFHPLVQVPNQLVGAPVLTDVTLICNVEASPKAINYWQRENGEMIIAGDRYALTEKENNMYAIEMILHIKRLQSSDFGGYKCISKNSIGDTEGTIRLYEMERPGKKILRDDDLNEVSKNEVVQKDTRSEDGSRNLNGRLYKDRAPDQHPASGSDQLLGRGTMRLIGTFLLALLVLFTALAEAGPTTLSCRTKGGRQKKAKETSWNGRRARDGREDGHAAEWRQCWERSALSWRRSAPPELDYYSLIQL

Kd [1] | Kd [2] | Substance
1.32 µM | 0.789 µM | Dpr8 (natural protein)
5.97 µM | 3.41 µM | Dpr9 (natural protein)
106 µM | 180 µM | Dpr11 (natural protein)
180 µM | 60 µM | Dpr16 (natural protein)
176 µM | 58.7 µM | Dpr17 (natural protein)
